The test system of the data set is rituximab (MabThera, anti-CD20 chimeric mouse/human IgG1) (chimeric mouse/human). Description: ELASA. The conditions noted are these: 80°C 1 min; ELASA on protein A plates, antibody 4 ug/ml; aptamers folded in 20 mM Tris pH 7.6, 100 mM NaCl, 2 mM MgCl2, 5 mM KCl, 1 mM CaCl2, 0.02% Tween 20, then diluted ….

In general, Kd refers to the equilibrium constant for the complex coming apart. Lower therefore signals a tighter complex. Regarding “ACTTCGGCTAGTTAGGGGGTAGTTTAGATCGTCTCTACAT [C10]”, the Kd came to 17.6 nM.

“GGCCATTGTGGACTTCTTTGGGTAATTCAGGGGCTCGATT [C7]” gave a Kd of 8.8 nM.

For the origin of these results see publication PMC7644011.
